Laboratory results taken from US8058396B2, “Cystatin C as an antagonist of TGF-β and methods related thereto” (National Jewish Health, priority 2003, dated 2011).
Where a SMILES comes first, the peptide text is derived from it.

Legend:
[1] = test system: HT1080 fibrosarcoma cells; assay: HT1080 cell invasion through Matrigel matrices; type: cell-based, human; conditions: treatment of HT1080 cells with inhibitor
Method: (§1) The effect CystC and D14CystC on the invasion of HT1080 and 3T3-L1 cells was determined as described previously (42). Briefly, upper chambers were coated with 100 μl of diluted Matrigel (1:50 in serum-free media), which was allowed to evaporate to dryness overnight at room temperature. The following morning the Matrigel mixtures were rehydrated and subsequently cultured with control-, CystC-, or D14CystC-expressing HT1080 or 3T3-L1 cells at a density of 100,000 cells/chamber. Cellular invasion was stimulated by addition of 2% serum to the lower chambers. Forty-eight hr later, the cells were washed twice in ice-cold PBS and immediately fixed for 15 min with 95% ethanol. Cells remaining in the upper chambers were removed with a cotton swab, whereas those remaining in the lower chamber were stained with crystal violet. Quantifying invading cells was determined through two independent measures, which yielded identical results: (i) manual counting under a light microscope, and (ii) crystal violet dye extraction by incubation of the membranes in 10% acetic acid, followed by spectrophotometry at 590 nm.
Cathepsin B is a lysosomal cysteine proteinase that functions in intracellular protein catabolism, as well as in bone resorption, hormone activation, and antigen processing (5). During tumorigenesis, cancer cells express a cathepsin B splice variant whose protein product is secreted into the extracellular milieu (5) and localized to the leading edge of invasive tumors (19), thereby promoting cancer cell invasion and metastasis. However, recent evidence has questioned the role of intracellular versus extracellular cathepsin B in promoting cancer cell invasion (20). To distinguish between these two possibilities, human HT1080 fibrosarcoma cells that stably express the murine ecotropic receptor (21) were infected with control (i.e., GFP), CystC, or Δ14CystC retrovirus. Afterward, cells that expressed GFP were isolated by flow cytometry to establish stable polyclonal populations of control-, CystC-, and Δ14CystC-expressing HT1080 cells (data not shown). The inventor chose to study HT1080 cells because they are highly invasive, and because they express large quantities of secreted cathepsin B and comparably little CystC (22). Thus, if extracellular cathepsin B mediates HT1080 cell invasion, it was hypothesized that overexpression of secreted CystC would attenuate their invasion through synthetic basement membranes.
Briefly, GFP-, CystC-, or Δ14CystC-expressing HT0180 cells were allowed to invade through Matrigel-coated membranes for 48 hr. Data shown in FIG. 1A are the mean (±SE) of three (Δ14CystC) and nine (GFP and CystC) independent experiments presented as the percent invasion relative to GFP-expressing HT1080 cells (***, p<0.05; Student's T-Test).

[2] = test system: NMuMG mammary epithelial cells; assay: TGF-β-mediated downregulation of E-cadherin in NMuMG cells; type: cell-based, murine; conditions: recombinant protein treatment 10 μg/ml; TGF-β1 5 ng/ml, 36 hours; NMuMG cells
Method: (§2) The ability of TGF-β to alter actin cytoskeletal architecture and E-cadherin expression was monitored essentially as described (Piek et al., 1999). Briefly, control-, CystC-, or Δ14CystC-expressing NMuMG cells were allowed to adhere overnight to glass coverslips in 24-well plates (50,000 cells/well). The cells were stimulated the following day with TGF-β1 (5 ng/ml) for 0-36 hours at 37° C. In some experiments, control NMuMG cells were stimulated with TGF-β1 in the absence or presence of 10 μg/ml of recombinant GST, GST-CystC, or GST-Δ14CystC. Upon completion of agonist stimulation, the cells were washed in ice-cold PBS and immediately fixed in 3.7% formaldehyde. After extensive washing in PBS, the cells were blocked in PBS supplemented with 1.5% FBS, followed by incubation with rhodamine-phalloidin (0.25 μM). […]
The ability of TGF-β to alter E-cadherin expression also was monitored by immunoprecipitating E-cadherin from Buffer H/1% Triton X-100-solubilized (Schiemann et al., 2003) NMuMG whole cell extracts, followed by immunoblotting with anti-E-cadherin antibodies (1:1000 dilution).
(§3) To test this hypothesis, the inventor first examined whether CystC and a CystC mutant impaired in its ability to inhibit cathepsin protease activity (i.e., Δ14CystC) could antagonize TGF-β stimulation of EMT in MECs. […] TGF-β stimulation of EMT is studied routinely in murine NMuMG MECs, which readily undergo EMT when treated with TGF-β (Piek et al., 1999; Miettinen et al., 1994; Gotzmann et al., 2004). […] E-cadherin expression was monitored by indirect immunofluorescence with anti-E-cadherin antibodies.
In another experiment, NMuMG cells were infected with ecotropic retrovirus encoding either GFP (i.e., control), CystC, or Δ14CystC, and subsequently were isolated by FACS-sorting for GFP expression to yield stable polyclonal populations of control, CystC, and Δ14CystC-expressing cells. The expression and secretion of recombinant CystC proteins by infected NMuMG and NRK cells was monitored by immunoblotting conditioned-media with anti-CystC antibodies. […]

[3] = test system: 3T3-L1 fibroblasts; assay: 3T3-L1 cell invasion through Matrigel matrices; type: cell-based, murine; conditions: recombinant protein 10 mg/ml; TGF-β1 5 ng/ml; 48 hr
Method: as §1
In some experiments, the effects of recombinant CystC and D14CystC on 3T3-L1 cell invasion was examined. To do so, 3T3-L1 cells (100,000 cells/chamber) were allowed to invade through Matrigel […], together with or without 5 ng/ml of TGF-β1. All subsequent procedures were performed as described above.
GFP-, CystC-, or Δ14CystC-expressing 3T3-L1 cells were allowed to invade through Matrigel-coated filters in the absence or presence of TGF-β1 (5 ng/ml) for 48 hr, and the results are shown in FIG. 2A. […] Data are the mean (±SE) of four independent experiments presented as the percent invasion relative to GFP-expressing 3T3-L1 cells.
Moreover, the inhibitory effects of CystC on 3T3-L1 cell invasion could be recapitulated by addition of recombinant CystC fusion proteins. Control or TGF-β1-stimulated (5 ng/ml) 3T3-L1 cells were allowed to invade through Matrigel-coated filters for 48 hr in the absence or presence of recombinant (10 mg/ml) GST, GST-CystC, or GST-D14CystC as indicated in FIG. 2B. […] Data are the mean (±SE) of three independent experiments presented as the percent invasion relative to untreated 3T3-L1 cells. […] Collectively, these findings indicate that 3T3-L1 cell invasion proceeds through cathepsin B-dependent and TGF-β-dependent pathways.

[4] = test system: NMuMG mammary epithelial cells; assay: TGF-β-stimulated actin cytoskeletal reorganization (EMT) in NMuMG cells, rhodamine-phalloidin immunofluorescence; type: cell-based, murine; conditions: recombinant protein treatment 10 μg/ml; TGF-β1 5 ng/ml; NMuMG cells
Method: as §2, §3
In another experiment, NMuMG cells were infected with ecotropic retrovirus encoding either GFP (i.e., control), CystC, or Δ14CystC, and subsequently were isolated by FACS-sorting for GFP expression to yield stable polyclonal populations of control, CystC, and Δ14CystC-expressing cells. The expression and secretion of recombinant CystC proteins by infected NMuMG and NRK cells was monitored by immunoblotting conditioned-media with anti-CystC antibodies. […] Next, the control, CystC-, and Δ14CystC-expressing NMuMG cells were incubated in the absence or presence of TGF-β1 (5 ng/ml) for 36 hours, whereupon E-cadherin expression was monitored by immunoblotting with anti-E-Cadherin antibodies. […]

[5] = test system: TGF-β signaling; assay: p3TP-luciferase reporter gene assay in 3T3-L1 cells; type: cell-based, murine; conditions: recombinant protein 10 mg/ml; TGF-β1 5 ng/ml; 3T3-L1 cells; p<0.05
Method: Analysis of luciferase activity driven by the synthetic p3TP reporter ((26); generously provided by Dr. Joan Massague, Sloan Kettering) was performed as described previously (42). Briefly, control, CystC-, or Δ14CystC-expressing 3T3-L1 or HT1080 cells were cultured onto 24-well plates at a density of 45,000 cells/well and allowed to adhere overnight. The cells were transiently transfected the following morning by overnight exposure to LT1 liposomes (Mirus) containing 300 ng/well p3TP-luciferase and 100 ng/well of pCMV-β-gal. Afterward, the cells were washed twice with PBS and stimulated overnight in serum-free media with increasing concentrations of TGF-β1 as indicated. The following morning, luciferase and β-gal activities contained in detergent-solubilized cell extracts were determined.
In some experiments, the effects of recombinant CystC and D14CystC on p3TP-luciferase activity 3T3-L1 cells was determined. […] All subsequent procedures were performed as described above.
The present inventor's findings that TGF-β signaling was inhibited by CystC (FIGS. 1 and 2) independent of its actions on cathepsin B lead them to hypothesize CystC as a general antagonist of TGF-β signaling. To test this hypothesis, changes in p3TP-driven luciferase activity were monitored in control, CystC-, Δ14CystC-expressing cells before and after their stimulation with TGF-β. Briefly, GFP-, CystC-, or Δ14CystC-expressing 3T3-L1 cells were transiently transfected with p3TP-luciferase and pCMV-β-gal, and subsequently stimulated with increasing concentrations of TGF-β1 (0-5 ng/ml) as indicated in FIG. 3A. Afterward, luciferase and β-gal activities contained in detergent-solubilized cell extracts were measured. […] Data are the mean (±SE) luciferase activities of four independent experiments normalized to untreated GFP-expressing cells.
The transfectants were then stimulated with TGF-β1 (5 ng/ml) in the absence or presence of recombinant (10 mg/ml) GST, GST-CystC, or GST-D14CystC as indicated in FIG. 3B. […]

[6] = test system: TGF-β receptors (TβR-I, TβR-II, TβR-III); assay: Iodinated TGF-β1 radioligand binding and cross-linking assay on Mv1Lu cells; design: species or system mink; conditions: [125I]TGF-β1 200 pM, recombinant protein 0-10 μg/ml, 3 hr at 4° C.
Method: Mink lung Mv1Lu epithelial cells were plated onto 6-well plates and grown until 90% confluency. The radioligand binding and cross-linking of iodinated TGF-β1 (200 pM) to Mv1Lu cells in the absence or presence of increasing concentration of recombinant GST-Jun(1-79) or -CystC was performed as described previously (44). Afterward, cytokine:receptor complexes contained in detergent-solubilized whole cell extracts were isolated by immunoprecipitation with anti-TβR-II antibodies as described previously (44). TGF-β1 bound to cell surface TβR-I, TβR-II, and TβR-III was visualized by exposure of the dried gels to a phosphor screen, which were developed 1-3 d later on a Molecular Dynamic Typhoon Scanner. Total bound TGF-β1 was defined as the sum of signal intensities for TGF-β1 cross-linked to TβR-I, TβR-II, and TβR-III in each condition.
Mink lung Mv1Lu epithelial cells were incubated for 3 hr at 4° C. with [125I]TGF-β1 (200 pM) in the absence or presence of increasing concentrations (0-10 μg/ml; 0, 0.5, 1, 5, 10) of recombinant Jun(1-79) or CystC. Cytokine:receptor complexes were cross-linked by addition of disuccinimidyl suberate, and subsequently isolated from detergent-solubilized whole cell extracts by immunoprecipitation with anti-TβR-II antibodies. […]

CCCNC(=O)[C@H]1O[C@@H]1C(=O)N[C@H](C(=O)N1CCC[C@H]1C(=O)OC)[C@@H](C)CC [CA-074ME, reference compound]
HT1080 cell invasiveness ([1]; n=3): 101.0±5.6 % of control

CC(=O)N[C@@H](CC(C)C)C(=O)N[C@H](C(=O)N[C@H](C=O)CCCCN)C(C)C [cathepsin B inhibitor II, reference compound] (Ac-Leu-Val-Lys-aldehyde)
reduction of HT1080 cell invasion through Matrigel matrices ([1]; n=3, p<0.05): 47.1±8.5%

B1: recombinant Δ14CystC: GST-CystC fusion protein with residues 80-93 deleted by site-directed mutagenesis, purified from E. coli (protein)
chain: MAGPLRAPLLLLAILAVALAVSPAAGSSPGKPPRLVGGPMDASVEEEGVRRALDFAVGEYNKASNDMYHSRALQVVRARLGRTTCTKTQPNLDNCPFHDQPHLKRKAFCSFQIYAVPWQGTMTLSKSTCQDA
modifications: left off: small tags and cut ends
notes: GST-CystC fusion protein with residues 80-93 deleted by site-directed mutagenesis, purified from E. coli
TGF-β-mediated downregulation of E-cadherin [2]: antagonized | 3T3-L1 cell invasion stimulated by serum:TGF-β [3]: selectively blocked | actin cytoskeletal reorganization stimulated by TGF-β [4]: prevented | luciferase activity stimulated by TGF-β (p3TP) [5]: significantly inhibited

B2: recombinant Jun(1-79): recombinant GST-Jun(1-79) fusion protein, control in the TGF-β1 binding assay (protein)
chain: MTAKMETTFYDDALNASFLPSESGPYGYSNPKILKQSMTLNLADPVGSLKPHLRAKNSDLLTSPDVGLLKLASPELERL
modifications: left off: a dimerising Fc or GST
binding of iodinated TGF-β1 to its cell surface receptors [6]: no effect
